Experimental data reported in paper PMC9514218 (Protein Science : A Publication of the Protein Society, 2022).
Residue numbers refer to the chain shown, from its start. Ends that are not written are not given here.

T1: SURP1 (res. 48–110) of human SF3A1, K80Q mutant (human, UniProt Q15459 48-110, K80Q)
T1 sequence: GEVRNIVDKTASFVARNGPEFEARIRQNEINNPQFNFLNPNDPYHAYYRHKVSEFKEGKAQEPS

T2: SURP1 (res. 48–110) of human SF3A1, R62E mutant (human, UniProt Q15459 48-110, R62E)
T2 sequence: T1 sequence with R16E, Q34K

T3: SURP1 (res. 48–110) of human SF3A1, wild type (human, UniProt Q15459 48-110)
T3 sequence: T1 sequence with Q34K

T4: SURP1 (res. 48–110) of human SF3A1, R62Q mutant (human, UniProt Q15459 48-110, R62Q)
T4 sequence: T1 sequence with R16Q, Q34K

T5: SURP1 (res. 48–110) of human SF3A1, N63Q mutant (human, UniProt Q15459 48-110, N63Q)
T5 sequence: T1 sequence with N17Q, Q34K

T6: SURP1 (res. 48–110) of human SF3A1, N63E mutant (human, UniProt Q15459 48-110, N63E)
T6 sequence: T1 sequence with N17E, Q34K

T7: SURP1 (res. 48–110) of human SF3A1, K80D mutant (human, UniProt Q15459 48-110, K80D)
T7 sequence: T1 sequence with Q34D


Key:
[1] = molecular target: T1, SURP1 (res. 48–110) of human SF3A1, …; test: BLI
[2] = molecular target: T2, SURP1 (res. 48–110) of human SF3A1, …; test: BLI
[3] = molecular target: T3, SURP1 (res. 48–110) of human SF3A1, …; test: BLI
[4] = molecular target: T4, SURP1 (res. 48–110) of human SF3A1, …; test: BLI
[5] = molecular target: T5, SURP1 (res. 48–110) of human SF3A1, …; test: BLI
[6] = molecular target: T6, SURP1 (res. 48–110) of human SF3A1, …; test: BLI
[7] = molecular target: T7, SURP1 (res. 48–110) of human SF3A1, …; test: BLI
[8] = molecular target: T3, SURP1 (res. 48–110) of human SF3A1, …; test: NMR solution structure

Binder | Kd [1] | Kd [2] | Kd [3] | Kd [4] | Kd [5] | Kd [6] | Kd [7] | binding result [8]
QRPGDPQSAQDKARMDKEYLSLMAELGEAPVPA (peptide, UniProt Q15637 295-327, looked up, also: biotin (position not given here)) [biotin-tagged SF1 S1BRp (res. 295–327)] | 64.2 µM | 393 µM | 15.2 µM | 187 µM | 139 µM | 251 µM | 132 µM | –
QRPGDPQSAQDKARMDKEYLSLMAELGEAPVPASVGSTSGP (peptide, UniProt Q15637 295-335, looked up, also: biotin (position not given here)) [biotin-tagged SF1 S1BRp (res. 295–335)] | – | – | 17.3 µM | – | – | – | – | –
QRPGDPQSAQDKARMDKEYLSLMAELGEAPVPA (domain or fragment, human, UniProt Q15637 295-327, looked up) [S1BR (res. 295–327) of SF1 as it stands in the chimera] | – | – | – | – | – | – | – | binds
